The values that follow come from patent US20260083859A1, “SUSTAINED TRANSGENE EXPRESSION OF MODIFIED ERT2 PEPTIDE-SUICIDE PROTEIN FUSION POLYPEPTIDES” (Senti Biosciences, Inc., priority 2023, published 2026).

One data set concerns iPSC clones. Description: Apoptotic efficacy in individual construct clones treated with 4-OHT, Endoxifen or combinations. In kind it is cell-based, human. The settings on record: for lowest effective concentration in 4-OHT-Endoxifen combination: clone Construct 1 c.165; for apoptotic (killing) efficacy: 24 hours. The method, then: Next, individual clones that were determined to be suitable for further assessments were evaluated for 24 hours in the presence of 4-OHT at two different concentrations.
Individual Construct 1-4 clones were also assessed for their responses to another tamoxifen metabolite, Endoxifen. Clones were evaluated for 24 hours in the presence of Endoxifen at three different concentrations.
Tamoxifen is a prodrug that is broken down into its active metabolites in vivo. To model predicted drug concentrations in a patient, the clone Construct 1 c.165 was treated with various combinations of 4-OHT and Endoxifen, wherein 1.25 nM Endoxifen was combined with a concentration of 4-OHT ranging between 0.125 nM to 1 nM (FIG. 12A). […] In the next evaluation, 0.125 nM 4-OHT was combined with either 0.625 or 1.25 nM Endoxifen (FIG. 12B).

The test system of data set [1] is PSC-derived dopaminergic neurons. Description: Apoptosis in PSC-derived dopaminergic neurons (Example 9). In kind it is cell-based. Particulars: neurons from PSCs engineered with Table 3 constructs; 1, 5, 50 or 100 nM 4-OHT, or 5, 10, 50 or 100 nM Endoxifen. The method, then:
To validate conservation of kill switch function after PSCs are differentiated to dopaminergic neurons, PSCs engineered to incorporate the modified ERT2 peptide-suicide protein fusion constructs outlined in Table 3 are differentiated into dopaminergic neurons. Thereafter PSC-derived dopaminergic neurons are treated with Endoxifen, 4-OHT or media alone and tested for incorporation of the modified ERT2 peptide-suicide protein fusion polypeptide construct in the STEL site.
To test function of the modified ERT2 peptide-suicide protein fusion polypeptides in PSC-derived dopaminergic neurons, dopaminergic neurons are cultured, then treated with either lnM, 5 nM, 50 nM, or 100 nM 4-OHT; or 5 nM, 10 nM, 50 nM, or 100 nM Endoxifen, before assessment of apoptosis.

Data set [2] concerns PSC-derived microglial precursor cells or myeloid progenitor cells. As to the kind of experiment: Apoptosis in PSC-derived microglial precursor cells or myeloid progenitor cells (Example 8). It is filed as cell-based. Particulars: cells from PSCs engineered with Table 3 constructs; 1, 5, 50 or 100 nM 4-OHT, or 5, 10, 50 or 100 nM Endoxifen. The method, then: To validate conservation of kill switch function after PSCs are differentiated to precursor cells or myeloid progenitor cells, PSCs engineered to incorporate the modified ERT2 peptide-suicide protein fusion polypeptide constructs outlined in Table 3 were differentiated into microglial precursor cells or myeloid progenitor cells. Thereafter PSC-derived microglial precursor cells or myeloid progenitor cells are treated with Endoxifen, 4-OHT or media alone and tested for incorporation of the modified ERT2 peptide-suicide protein fusion polypeptide in the STEL site.
To test function of the modified ERT2 peptide-suicide protein fusion polypeptide constructs in PSC-derived microglial precursor cells or myeloid progenitor cells, cells are cultured, then treated with either lnM, 5 nM, 50 nM, or 100 nM 4-OHT, or 5 nM, 10 nM, 50 nM, or 100 nM Endoxifen, before assessment of apoptosis.

Data set [3] deals with PSC-derived myeloid progenitor cells. Description: TamCasp9 Safety Switch activation in PSC-derived myeloid progenitor cells, AOPI staining, Incucyte SX5. It is filed as cell-based, human. The settings on record: for apoptosis in unedited cells: unedited differentiated myeloid progenitors, combination 4-OHT and Endoxifen treatment. The method, then:
A hPSC line engineered with TamCasp9 Construct 1 and an unedited parental control hPSC line were differentiated into myeloid progenitor cells through the addition of various growth factors and small molecules. Differentiated cells were plated at 1×10^5 cells/cm^2 in an ultra-low attachment cell culture plate for further myeloid cell maturation. After 7 days in maturation medium, cells were collected and frozen down.
For testing of TamCasp9 Safety Switch activation, myeloid cells were plated at 1.5×10^5 cells/cm^2 in a 96-well tissue culture plate with a 1:750 dilution of ViaStain AOPI Staining Solution (Nexcelom) in X-VIVO 15 Medium with 10 ng/mL GM-CSF. The kill switch was induced with 0, 1, 10 or 100 uM of Endoxifen over 3 days and images were collected every 6 hours on the Incucyte SX5 (Sartorius).
To better model predicted drug concentrations in a patient by testing activation of the kill switch against a range of tamoxifen metabolites, the PSC clone Construct 1 c.165, engineered to incorporate an exemplary modified ERT2 peptide-suicide protein fusion polypeptide construct (Table 3), was differentiated to myeloid progenitor cells as depicted in FIG. 13A. Differentiated cells were plated at 1×10^5 cells/cm^2 in an ultra-low attachment cell culture plate for further myeloid cell maturation. After 7 days in maturation medium, cells were collected and frozen down. For testing of TamCasp9 Safety Switch activation, myeloid cells were plated at 1.0×10^5 cells/cm^2 in a 96-well tissue culture plate with a 1:750 dilution of ViaStain AOPI Staining Solution (Nexcelom) in X-VIVO 15 Medium with 10 ng/mL GM-CSF. The kill switch was induced with varying concentrations of combination 4-OHT and Endoxifen treatment over 4 days and images were collected every 4 hours on the Incucyte SX5, with 12 hour timepoints plotted on a graph (Sartorius) (FIG. 14). Either 2.5 nM or 5 nM of Endoxifen was tested in combination with either 0.5 nM, 1 nM or 10 nM of 4-OHT. 100 nM Endoxifen was added as positive killing control as per FIG. 13E.

The test system of a further data set is iPSCs. Description: Apoptosis induction in transfected iPSCs monitored by microscopy and Incucyte tracking. It is filed as cell-based, human. Particulars: 1 nM 4-OHT, up to two days; for apoptosis / cell killing: construct-transfected iPSCs.
Data set [4] concerns human iPSCs. Description: Conventional PCR (agarose gel) of knock-in iPSC pools, with or without 4-OHT. It is filed as cell-based. Particulars: iPSC pools treated with 1 nM 4-OHT. The method, then:
(§1) Modified ERT2 peptide-suicide protein fusion polypeptide encoding constructs were delivered to human iPSCs via Nucleofection with a GAPDH targeting ribonucleoprotein (RNP) complex comprising of Cpf1 endonuclease and a single guide RNA (sgRNA) targeting the coding sequence of the GAPDH gene. The sgRNA comprised a sequence 5′ […] 3′ (SEQ ID NO: 60). Briefly, iPSCs were cultured in Essential 8 (E8) medium and maintained at 37° C. at 5% CO2 level between passages. Passages were done at 75 to 80% confluency. On the day of Nucleofection, iPSCs were thawed and immediately Nucleofected in Lonza P3 Primary Cell Nucleofection buffer. 7.5 μg of each plasmid construct (BRC00058-61) were Nucleofected into iPSCs using GAPDH Cpf1 RNP with LONZA 4D Nucleofector. The Nucleofected cells were then plated at 50,000 cells/cm^2 per well of a 6-well plate and grown in E8 medium (plus Rock inhibitor Y-27632 from Tocris) for 72 to 96 hours. Knock-in pools were screened for integration 7d post-Nucleofection using ddPCR, as well as conventional PCR.

The subject of data set [5] is human iPSCs. As to the kind of experiment: Flow cytometric analysis of cleaved Caspase-3 in transfected iPSCs. In kind it is cell-based. The settings on record: 1 nM 4-OHT, two-day treatment. The text has this:
In another set of assessments, Construct 1 or Construct 2 transfected iPSCs were harvested for flow cytometric analysis. The primary antibody used was an anti-human/mouse cleaved Caspase-3. The primary antibody detects human and mouse Caspase 3 cleaved at Asp175.
On the technique in general: A flow cytometer gives signals particle by particle.

Data set [6] relates to human iPSCs. Description: Junction GAPT2A ddPCR of knock-in iPSC pools for integration at GAPDH locus, with or without 4-OHT. It is filed as cell-based. Particulars: pooled iPSCs treated with 1 nM 4-OHT. How it is done: as §1
Whereas the integration dropped from 5.7% to 1% in Construct 1-transfected cell pools and from 4.5% to 0.7% in Construct 2-transfected cell pools when treated with 1 nM 4-OHT (FIG. 4A).

Residue numbers refer to the chain shown, from its start. “Also recorded” adds a separate entry of the source.

Turning to 4-hydroxytamoxifen [Construct 4-OHT], the “lowest effective concentration in 4-OHT-Endoxifen combination” value in the data set with iPSC clones was determined as 0.125 nM. Besides, the apoptosis result in data set [1] and in data set [2] was “resulted in apoptosis” in each case. Also, in data set [3], the “apoptosis in unedited cells” value was “did not induce apoptosis”. In addition, in the data set with iPSCs (unedited control cells), the “cell growth and density” value is “no detectable effect on cell health and growth”. For the same molecule, in the data set with human iPSCs [4], the “amount of cells carrying integration of kill-switch fusion sequences (PCR band intensity)” value is on record as “reduced the amount of cells that carried integration of the kill-switch fusion sequences at the GAPDH locus”.

As for `CC/C(=C(\c1ccc(O)cc1)c1ccc(OCCNC)cc1)c1ccccc1` [Endoxifen, endoxifen, reference compound], the “lowest effective concentration in 4-OHT-Endoxifen combination” value in the data set with iPSC clones is 1.25 nM. Moreover, in data set [3], the “apoptosis in unedited cells” value was “did not induce apoptosis”.

B1: Construct 1: GAPDH-targeting construct encoding modified ERT2 peptide-suicide protein fusion polypeptide ERT2*mut81-Casp9, SEQ ID NO: 44 (protein)
chain: AGDMRAANLWPSPLMIKRSKKNSLALSLTADQMVSALLDAEPPILYSEYDPTRPFSEASMMGLLTNLADRELVHMINWAKRVPGFVDLTLHDQVHLLECAWMEILMIGVVWRSMEHPVKLLFAPNLLLDRDQGKCVEGLVEIFDMLLATSSRFRMMNLQGEEFVCLKSIILLNSGVYTFLPSTLKSLEEKDHIHRVLDKITDTLIHLMAKAGLTLQQQHQRLAQLLLILSHIRHMSNKGMELLYSMKCKNVVPLYDLLLEAADAHRLHAPTSRGGASVEETDQSHLATAGSTSSHSLQKYYITGEAEGFPATGGGGSGGGGSGGGGSVDGFMDVGALESLRGNADLAYILSMEPCGHCLIINNVNFCRESGLRTRTGSNIDCEKLRRRFSSLHFMVEVKGDLTAKKMVLALLELARQDHGALDCCVVVILSHGCQASHLQFPGAVYGTDGCPVSVEKIVNIFNGTSCPSLGGKPKLFFIQACGGEQKDHGFEVASTSPEDESPGSNPEPDATPFQEGLRTFDQLDAISSLPTPSDIFVSYSTFPGFVSWRDPKSGSWYVETLDDIFEQWAHSEDLQSLLLRVANAVSVKGIYKQMPGCFNFLRKKLFFKTS
On to B1, for which the “apoptotic (killing) efficacy” value in the data set on iPSC clones (1 nM 4-OHT) is listed as “displayed higher efficacy than Construct 2-4 clones; also recorded: highest apoptotic efficacy”; in the data set on iPSC clones (1 nM Endoxifen, compared to hygromycin control) it was “approached the level of apoptosis by hygromycin control at 24 hours”. Also, the “apoptosis (cleaved Caspase-3 flow cytometry)” value in the data set with human iPSCs [5] is given as “able to induce apoptosis in the majority of the cells”. Further, the “fusion polypeptide sequence integration (junction GAPT2A ddPCR)” value (“fusion polypeptide sequence integration” below) in the data set with human iPSCs [6] worked out at 1%. For the same molecule, the “apoptosis (kill switch activity)” value in data set [3] (0, 1, 10 or 100 uM of Endoxifen over 3 days) is reported as “induced apoptosis following endoxifen treatment”. The “apoptosis / cell killing” value in the data set with iPSCs is “cells were completely killed by day 2”.

B2: Construct 4: GAPDH-targeting construct encoding fusion polypeptide ERT2*mut41-Casp9, SEQ ID NO: 50 (protein)
chain: B1 chain with L72I, M102L, L127V, Q132E, L139M, P181S
With B2, the “fusion polypeptide sequence integration” value in the data set on human iPSCs [6] was found to be 2.3%. Further, the “apoptosis / cell killing” value in the data set with iPSCs was “cells were completely killed by day 2”.

B3: Construct 3: GAPDH-targeting construct encoding fusion polypeptide ERT2*mut63-Casp9, SEQ ID NO: 48 (protein)
chain: B1 chain with L72I, M102L, Q132E, P181S, M235A, L242F
For B3, in the data set on human iPSCs [6], the “fusion polypeptide sequence integration” value is 1.4%. The “apoptosis / cell killing” value in the data set with iPSCs is on record as “cells were completely killed by day 2”.

B4: Construct 2: GAPDH-targeting construct encoding fusion polypeptide ERT2*mut88-Casp9, SEQ ID NO: 46 (protein)
chain: B1 chain with M102L, Q132E, L139M, L242F
On to B4, for which the “apoptotic (killing) efficacy” value with iPSC clones (5 nM 4-OHT) is given as “able to induce apoptosis”; in the data set on iPSC clones (10 nM Endoxifen, compared to hygromycin kill control), “able to induce apoptosis”. Further, the “apoptosis (cleaved Caspase-3 flow cytometry)” value in the data set with human iPSCs [5] is “failed to do so”. Moreover, the “fusion polypeptide sequence integration” value in the data set on human iPSCs [6] is reported as 0.7%. Further, the “apoptosis / cell killing” value in the data set with iPSCs is listed as “did not induce apoptosis”.
